Measured values reported in publication PMC2756145.

What was measured:
Pot1pC = target: T1, Pot1pC (Schizosaccharomyces pombe, UniProt O13988 178-389); assay: EMSA
T1 sequence: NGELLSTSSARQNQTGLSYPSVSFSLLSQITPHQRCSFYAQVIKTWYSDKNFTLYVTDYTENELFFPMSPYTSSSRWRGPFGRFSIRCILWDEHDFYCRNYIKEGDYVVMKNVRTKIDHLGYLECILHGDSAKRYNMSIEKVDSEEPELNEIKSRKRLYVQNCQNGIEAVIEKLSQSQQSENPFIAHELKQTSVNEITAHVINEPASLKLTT

Pot1-DBD_Q91A = target: T2, Pot1-DBD_Q91A (Schizosaccharomyces pombe, UniProt O13988 1-389, Q91A); assay: filter binding
T2 sequence: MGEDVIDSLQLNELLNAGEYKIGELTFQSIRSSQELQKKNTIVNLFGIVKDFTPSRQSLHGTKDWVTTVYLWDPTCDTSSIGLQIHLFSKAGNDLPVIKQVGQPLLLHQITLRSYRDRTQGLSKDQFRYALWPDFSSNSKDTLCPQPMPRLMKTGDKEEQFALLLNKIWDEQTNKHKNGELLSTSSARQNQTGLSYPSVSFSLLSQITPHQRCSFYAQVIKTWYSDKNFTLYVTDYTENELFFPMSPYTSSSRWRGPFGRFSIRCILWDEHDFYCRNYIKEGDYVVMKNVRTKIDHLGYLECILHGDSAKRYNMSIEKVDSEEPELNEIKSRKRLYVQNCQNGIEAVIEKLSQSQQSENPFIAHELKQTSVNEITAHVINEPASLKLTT

Pot1-DBD_T62A = target: T3, Pot1-DBD_T62A (Schizosaccharomyces pombe, UniProt O13988 1-389, T62A); assay: filter binding
T3 sequence: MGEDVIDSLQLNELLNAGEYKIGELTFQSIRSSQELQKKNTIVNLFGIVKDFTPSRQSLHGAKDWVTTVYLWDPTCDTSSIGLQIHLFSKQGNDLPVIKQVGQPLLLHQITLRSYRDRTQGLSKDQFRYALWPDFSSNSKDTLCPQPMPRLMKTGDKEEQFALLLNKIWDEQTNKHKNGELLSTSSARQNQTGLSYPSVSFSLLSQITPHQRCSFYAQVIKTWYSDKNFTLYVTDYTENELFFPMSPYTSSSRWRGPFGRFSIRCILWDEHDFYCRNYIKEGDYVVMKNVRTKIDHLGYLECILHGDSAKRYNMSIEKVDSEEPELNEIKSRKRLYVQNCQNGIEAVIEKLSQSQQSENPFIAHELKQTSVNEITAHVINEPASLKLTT

Pot1-DBD_L122A = target: T4, Pot1-DBD_L122A (Schizosaccharomyces pombe, UniProt O13988 1-389, L122A); assay: filter binding
T4 sequence: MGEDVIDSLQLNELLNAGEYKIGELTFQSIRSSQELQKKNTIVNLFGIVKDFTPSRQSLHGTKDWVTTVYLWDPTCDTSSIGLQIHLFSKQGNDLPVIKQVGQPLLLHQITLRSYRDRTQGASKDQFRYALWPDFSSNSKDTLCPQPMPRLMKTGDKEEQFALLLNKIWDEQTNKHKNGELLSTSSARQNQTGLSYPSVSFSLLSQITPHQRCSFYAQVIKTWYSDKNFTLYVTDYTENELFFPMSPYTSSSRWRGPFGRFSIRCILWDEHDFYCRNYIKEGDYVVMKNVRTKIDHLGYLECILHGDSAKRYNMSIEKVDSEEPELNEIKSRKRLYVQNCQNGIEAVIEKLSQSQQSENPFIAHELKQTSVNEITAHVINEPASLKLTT

Pot1-DBD_Y115A = target: T5, Pot1-DBD_Y115A (Schizosaccharomyces pombe, UniProt O13988 1-389, Y115A); assay: filter binding
T5 sequence: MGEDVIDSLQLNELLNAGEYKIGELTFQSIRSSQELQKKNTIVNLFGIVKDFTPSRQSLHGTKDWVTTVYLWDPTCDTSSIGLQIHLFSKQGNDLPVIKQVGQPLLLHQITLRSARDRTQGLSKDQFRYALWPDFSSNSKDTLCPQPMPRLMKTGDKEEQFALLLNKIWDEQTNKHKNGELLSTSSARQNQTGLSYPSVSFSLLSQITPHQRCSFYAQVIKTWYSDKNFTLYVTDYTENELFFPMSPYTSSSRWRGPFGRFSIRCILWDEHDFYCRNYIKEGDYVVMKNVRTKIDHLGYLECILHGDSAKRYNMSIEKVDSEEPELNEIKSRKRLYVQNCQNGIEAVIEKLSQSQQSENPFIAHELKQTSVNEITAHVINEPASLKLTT

Binder GGTTACGGTTAC (ssDNA) [12mer] has a Kd (Pot1pC) of 700 ± 200 nM, a Kd (Pot1-DBD_Q91A) of 7 ± 0.6 nM and a Kd (Pot1-DBD_T62A) of 90 ± 3 nM. The Kd (Pot1-DBD_L122A) was 90 ± 7 nM and the Kd (Pot1-DBD_Y115A) was 80 ± 4 nM.
